Test results published in patent US20210340207A1 (Merck Sharp & Dohme, published 2021).
*1 amine or outer side, *2 acyl side, *3 side chain or, on linkers, in order; H or OH if unused. Side-chain parts run from the residue outwards. [ ]: non-standard residue; d: D form. pAMF = para-azidomethylphenylalanine, [N-]=[N+]=NCc1ccc(C[C@H](N[*:1])C(=O)[*:2])cc1

What was measured:
Assay in all cases: cell-based or functional assay
[1] = molecular target: T1, human IL-2Rαβγc (on Kit225-STAT5 reporter cells, NK-92 cells, primary Treg cells) (human, UniProt P01589 22-272; P14784 27-551; P31785 23-369)
T1 sequence (looked up) 1: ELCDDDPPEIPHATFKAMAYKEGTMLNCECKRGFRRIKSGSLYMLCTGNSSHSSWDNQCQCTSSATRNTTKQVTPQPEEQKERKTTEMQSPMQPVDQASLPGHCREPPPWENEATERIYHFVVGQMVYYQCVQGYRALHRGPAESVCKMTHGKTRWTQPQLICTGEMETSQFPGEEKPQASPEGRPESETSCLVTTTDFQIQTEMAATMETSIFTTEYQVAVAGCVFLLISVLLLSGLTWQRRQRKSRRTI
T1 sequence (looked up) 2: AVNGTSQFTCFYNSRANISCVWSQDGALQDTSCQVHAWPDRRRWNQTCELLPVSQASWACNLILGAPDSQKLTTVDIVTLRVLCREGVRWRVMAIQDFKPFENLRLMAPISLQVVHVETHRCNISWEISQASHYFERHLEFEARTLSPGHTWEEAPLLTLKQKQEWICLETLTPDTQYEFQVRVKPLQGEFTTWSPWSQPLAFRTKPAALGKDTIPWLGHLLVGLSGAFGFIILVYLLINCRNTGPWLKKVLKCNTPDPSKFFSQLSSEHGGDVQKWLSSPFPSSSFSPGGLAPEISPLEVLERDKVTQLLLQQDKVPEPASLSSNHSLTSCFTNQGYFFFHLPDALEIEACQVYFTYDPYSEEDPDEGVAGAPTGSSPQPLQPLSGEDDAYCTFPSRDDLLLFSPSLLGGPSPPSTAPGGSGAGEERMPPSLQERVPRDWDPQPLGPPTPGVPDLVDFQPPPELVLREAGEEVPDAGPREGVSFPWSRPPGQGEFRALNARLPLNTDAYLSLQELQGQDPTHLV
T1 sequence (looked up) 3: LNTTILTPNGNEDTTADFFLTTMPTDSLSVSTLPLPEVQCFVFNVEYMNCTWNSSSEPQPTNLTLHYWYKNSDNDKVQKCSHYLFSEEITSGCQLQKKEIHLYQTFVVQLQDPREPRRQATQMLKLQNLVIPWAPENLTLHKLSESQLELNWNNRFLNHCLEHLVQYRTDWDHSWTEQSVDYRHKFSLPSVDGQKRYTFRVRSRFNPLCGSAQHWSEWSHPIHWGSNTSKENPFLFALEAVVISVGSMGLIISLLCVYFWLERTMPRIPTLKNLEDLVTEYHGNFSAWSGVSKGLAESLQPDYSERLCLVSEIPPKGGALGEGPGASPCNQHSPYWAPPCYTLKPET

[2] = molecular target: T2, mouse IL-2Rαβγc (on CTLL2-STAT5 reporter cells) (mouse, UniProt P01590 22-268; P16297 27-539; P34902 23-369)
T2 sequence (looked up) 1: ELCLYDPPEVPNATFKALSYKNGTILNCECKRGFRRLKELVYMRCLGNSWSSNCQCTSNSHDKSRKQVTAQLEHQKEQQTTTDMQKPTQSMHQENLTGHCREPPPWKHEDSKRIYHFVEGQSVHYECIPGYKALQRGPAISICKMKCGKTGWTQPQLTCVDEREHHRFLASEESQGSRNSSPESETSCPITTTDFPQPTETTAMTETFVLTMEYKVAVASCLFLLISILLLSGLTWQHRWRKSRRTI
T2 sequence (looked up) 2: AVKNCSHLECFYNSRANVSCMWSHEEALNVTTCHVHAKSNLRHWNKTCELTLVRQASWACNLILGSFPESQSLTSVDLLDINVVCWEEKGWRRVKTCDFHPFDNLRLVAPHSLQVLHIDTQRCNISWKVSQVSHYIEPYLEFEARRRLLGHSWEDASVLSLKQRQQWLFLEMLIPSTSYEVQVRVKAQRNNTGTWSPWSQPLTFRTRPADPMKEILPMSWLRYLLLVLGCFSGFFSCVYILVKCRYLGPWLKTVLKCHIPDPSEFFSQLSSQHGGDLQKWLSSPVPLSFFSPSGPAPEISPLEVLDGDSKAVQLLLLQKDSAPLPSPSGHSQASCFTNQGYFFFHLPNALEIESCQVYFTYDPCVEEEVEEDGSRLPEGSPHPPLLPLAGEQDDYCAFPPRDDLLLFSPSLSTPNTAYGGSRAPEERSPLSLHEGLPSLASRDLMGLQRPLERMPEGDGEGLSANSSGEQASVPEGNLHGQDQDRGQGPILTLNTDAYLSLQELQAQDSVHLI
T2 sequence (looked up) 3: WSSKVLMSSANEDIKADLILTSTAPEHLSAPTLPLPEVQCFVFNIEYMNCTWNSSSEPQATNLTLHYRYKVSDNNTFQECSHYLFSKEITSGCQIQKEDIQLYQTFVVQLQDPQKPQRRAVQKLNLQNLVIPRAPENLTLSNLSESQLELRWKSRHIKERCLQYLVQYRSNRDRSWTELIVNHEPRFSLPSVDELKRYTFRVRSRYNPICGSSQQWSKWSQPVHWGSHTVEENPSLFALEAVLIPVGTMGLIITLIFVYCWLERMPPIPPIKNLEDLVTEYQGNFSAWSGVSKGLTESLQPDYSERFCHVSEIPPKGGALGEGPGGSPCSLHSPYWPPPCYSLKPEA

[3] = molecular target: T1, human IL-2Rαβγc (on Kit225-STAT5 …); remark: listed apart in the source
[4] = molecular target: T3, human IL-2Rβγc (on DERL-7 cells, U2OS IL2RB/IL2RG cells, CD25 knockout Kit225-STAT5 cells, primary CD8+ CTLs) (human, UniProt P14784 27-551; P31785 23-369)
T3 sequence (looked up) 1: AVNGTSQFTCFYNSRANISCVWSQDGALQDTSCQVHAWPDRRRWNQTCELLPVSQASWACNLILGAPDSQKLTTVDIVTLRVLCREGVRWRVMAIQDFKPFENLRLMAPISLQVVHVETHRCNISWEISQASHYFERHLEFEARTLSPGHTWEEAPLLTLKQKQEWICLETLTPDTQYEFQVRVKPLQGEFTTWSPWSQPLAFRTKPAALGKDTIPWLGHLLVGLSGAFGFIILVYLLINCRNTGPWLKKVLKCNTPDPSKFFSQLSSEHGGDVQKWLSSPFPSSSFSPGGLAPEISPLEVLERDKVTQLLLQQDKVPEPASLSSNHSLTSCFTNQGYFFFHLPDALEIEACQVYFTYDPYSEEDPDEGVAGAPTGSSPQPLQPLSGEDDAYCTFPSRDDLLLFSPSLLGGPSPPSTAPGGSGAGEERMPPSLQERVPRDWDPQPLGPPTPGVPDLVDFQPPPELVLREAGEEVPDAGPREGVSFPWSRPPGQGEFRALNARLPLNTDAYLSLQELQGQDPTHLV
T3 sequence (looked up) 2: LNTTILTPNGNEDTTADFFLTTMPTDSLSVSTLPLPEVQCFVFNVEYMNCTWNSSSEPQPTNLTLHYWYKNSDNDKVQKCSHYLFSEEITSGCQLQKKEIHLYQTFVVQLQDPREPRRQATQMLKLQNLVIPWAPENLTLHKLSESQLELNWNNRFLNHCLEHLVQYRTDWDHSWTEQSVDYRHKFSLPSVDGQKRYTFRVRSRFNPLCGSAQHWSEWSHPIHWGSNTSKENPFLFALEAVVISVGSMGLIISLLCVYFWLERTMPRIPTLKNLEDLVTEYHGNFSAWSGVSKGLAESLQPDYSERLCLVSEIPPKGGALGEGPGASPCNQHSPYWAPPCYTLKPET

[5] = molecular target: T1, human IL-2Rαβγc (on Kit225-STAT5 …); remark: listed apart in the source
[6] = molecular target: T3, human IL-2Rβγc (on DERL-7 cells, U2OS …); remark: listed apart in the source

Kit225-STAT5 reporter, fold lower activity than aldesleukin [1]: 5110 fold | STAT5-CTLL2 EC50 [2]: 57.4 nM | STAT5-CTLL2 EC50 Fold-change [2]: 5300 fold | Kit225-STAT5 EC50 [3]: 0.45 nM | Kit225-STAT5 EC50 Fold-change [3]: 437 fold | NK-92 EC50 Fold-change [3]: 117 fold | NK-92 proliferation EC50 [3]: 0.68 nM | DERL-7 EC50 Fold-change [4]: 17 fold | DERL-7 proliferation EC50 [4]: 0.73 nM | pSTAT5 Treg Fold-change from wt, donor #1 [5]: 3620 fold | pSTAT5 Treg Fold-change from wt, donor #2 [5]: 2230 fold | pSTAT5 Treg cells EC50, donor #1 [5]: 11.8 nM | pSTAT5 Treg cells EC50, donor #2 [5]: 7.29 nM | pSTAT5 CTLs EC50, donor #1 [6]: 71.9 nM | pSTAT5 CTLs EC50, donor #2 [6]: 43 nM | pSTAT5 CTLs Fold-change from wt, donor #1 [6]: 25 fold | pSTAT5 CTLs Fold-change from wt, donor #2 [6]: 45 fold
B1: Ald_S4pAMF(PEG1)/R37A/F41K (CON1) (ligand)
chain: PTS[pAMF]([DBCO‑triazole-mPEG 30 kDa])STKKTQLQLEHLLLDLQMILNGINNYKNPKLTAMLTKKFYMPKKATELKHLQCLEEELKPLEEVLNLAQSKNFHLRPRDLISNINVIVLELKGSETTFMCEYADETATIVEFLNRWITFSQSIISTLT
modifications: not fully specified (bridges)
notes: also called Des-A1_IL-2_S4pAMF(PEG1)/R37A/F41K/C124S
